Experimental data: article PMC12678314

Target: glutamate-1-semialdehyde aminotransferase (GSAAT), endogenous (Arabidopsis thaliana (endogenous in leaf extracts; the plant of the chloroplast extracts is not named)) (UniProt P42799)
Assay: non-reducing SDS-PAGE with immunoblot; wild-type Arabidopsis leaf extracts, untreated or pretreated with H2O2, diamide or DTT for 30 min at room temperature; non-reducing 8% SDS-PA gel (the text says non-denaturing PA gel); GSAAT-specific antibody

Chain of glutamate-1-semialdehyde aminotransferase (GSAAT), endogenous (P42799 39-474): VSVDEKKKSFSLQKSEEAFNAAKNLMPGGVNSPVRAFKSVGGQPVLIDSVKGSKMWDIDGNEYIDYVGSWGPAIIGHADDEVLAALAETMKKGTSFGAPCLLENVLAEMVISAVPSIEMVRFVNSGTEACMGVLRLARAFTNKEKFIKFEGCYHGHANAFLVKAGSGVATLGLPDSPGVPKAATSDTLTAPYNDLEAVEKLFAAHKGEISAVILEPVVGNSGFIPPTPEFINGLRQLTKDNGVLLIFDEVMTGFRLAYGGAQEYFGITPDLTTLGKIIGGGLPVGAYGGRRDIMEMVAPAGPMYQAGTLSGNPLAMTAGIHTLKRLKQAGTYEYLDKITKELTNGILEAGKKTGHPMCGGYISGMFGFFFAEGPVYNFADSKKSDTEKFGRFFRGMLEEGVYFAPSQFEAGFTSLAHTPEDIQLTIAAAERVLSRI

- stoichiometry N: 2
Substance: glutamate-1-semialdehyde aminotransferase (GSAAT), endogenous (from UniProt P42799 39-474) (enzyme)
